Data on two molecules can be found in patent US20090285807A1 (METHERESIS TRANSLATIONAL RESEARCH, published 2009).

For experiment [1], the target named is T1, Hepatocyte Growth Factor Receptor (HGFR, Met receptor), full length, endogenous in human tumor cells (GTL-16) (human, UniProt P08581 25-1390).
T1 construct: whole, on cells; The mature receptor is a disulfide-linked alpha/beta heterodimer cleaved from one precursor; also called HGF receptor
Put plainly: immunoprecipitation of Met receptor from cell lysates, Western blot with anti-Met C-terminal antibody (FIG. 11A). The procedure: FIG. 11: The recombinant AntiMET-R binds with high affinity the extracellular domain of Met. (A) Western blot analysis of cell lysates containing the Met Receptor immunoprecipitated with the AntiMET-R derived from different sources (hybridoma or genetically modified carcinoma cell line). The immunoprecipitation was performed incubating Seph. Prot. G with cell culture supernatants from 1: Hybridoma producing unrelated MAb; 2 Hybridoma producing AntiMET-R MAb; 3: MDA-MB 435 cells infected with lentiviral vector carrying cDNAs for AntiMET-R MAb 4: MDA-MB 435 cells not infected. Samples were subjected to SDS-PAGE under reducing condition and the corresponding filters were probed with an anti-Met antibody directed against the c-Terminal tail of the receptor. (B) Binding assay of the AntiMET-R and the recombinant AntiMET-R to the extracellular domain of the Met Receptor. 96 wells plate coated with purified MET extracellular domain fused to the Fc domain derived from Human Ig (100 ng/well) was incubated with increasing concentrations of purified AntiMET-R or recombinant AntiMET-R (from 0 to 5.5 nM). […] To control the specificity of binding we performed the same assay using wells coated with Fc-Ron (a chimera protein generated fusing the Fc domain of Human Ig to the extracellular domain of the Ron receptor, a protein belonging to the Met receptor family).
(In general: A western blot detects proteins with antibodies after separation by electrophoresis.)

Experiment [2] has as its target T2, Decoy Met (aminoacids 1-932), soluble recombinant entire extracellular region of human Met, myc- and … (human, UniProt P08581 25-932).
T2 construct: range 25-932; Numbering follows GenBank X54559; also called myc-tagged Decoy Met; Met ectodomain
Put plainly: immunoprecipitation from conditioned medium, Western blot with anti-myc. The source says: (§1) FIG. 18: AntiMET-R specifically recognizes an epitope located in the IPTs region. Conditioned media of MDA-MB-435 cells transduced with lentiviral vector particles encoding for myc-tagged Decoy Met, myc-tagged SEMA PSI and myc-tagged PSI IPT1-4 were immunoprecipitated with the antiMET-R antibody and detected by Western blot using a biotinylated anti-myc antibody (right panel). Equal amounts of conditioned media were loaded as a control for protein expression (left panel). CTRL: conditioned medium of MDA-MB-435 cells transduced with an empty lentiviral vector. Decoy Met: conditioned medium of MDA-MB-435 cells transduced with a lentiviral vector expressing the entire HGFR extracellular domain. PSI-IPT: conditioned medium of MDA-MB-435 cells transduced with a lentiviral vector expressing PSI, IPT-1, IPT-2, IPT-3, IPT-4 domains of the HGFR. SEMA-PSI: conditioned medium of MDA-MB-435 cells transduced with a lentiviral vector expressing Sema and PSI domains of the HGFR. On the right molecular weight in KD are shown.
(§2) Conditioned media of MDA-MB-435 cells transduced with myc-tagged Decoy Met, SEMA PSI and PSI IPT were immunoprecipitated with the AntiMET-R antibody and detected by Western blot using a biotinylated anti-myc antibody (FIG. 18, right panel). […]

In experiment [3] the target is T3, SEMA PSI (aminoacids 1-562), truncated form of Decoy Met containing the SEMA domain and the PSI region, myc- … (human, UniProt P08581 25-562).
T3 construct: range 25-562; also called myc-tagged SEMA PSI
The description is as above.
Description: as §1, §2

The target of experiment [4] is T1, Hepatocyte Growth Factor Receptor …. Put plainly: flow cytometry on GTL-16 cells (50 ug/ml antibody) and immunofluorescence on fixed GTL-16 cells (2.5 ug/ml). The procedure: For Flow cytometry analysis, 10⁵ GTL-16 cells were detached with PBS-EDTA 0.025%, washed with PBS and incubated with 50 μg/ml of antiMet-R antibody or the same amount of isotype control mouse Ig for 15′ RT. After 2 washes with PBS, the cells were incubated with 15 μg/ml of FITC conjugated Goat anti-mouse Ig (Jackson Immunoresearch laboratories) for 15′ RT. Cells were than washed, re-suspended in PBS-5% BSA and analysed by flow cytometry (Becton Dickinson, Mountain View, Calif.). GTL-16 cells were fixed in methanol:aceton (3:1) for 5′ on ice then blocked with 2% goat serum in PBS for 30′ at RT. […] Analysis of the samples was performed with a fluorescence microscope (DM-IRB, Leica Microsystems).
GTL-16 cells, a human gastric carcinoma cell line, were incubated with the AntiMET-R antibody. […] Infact the mean of fluorescence intensity in cells labelled with the antiMet-R antibody was increased respect to ctrl cells (FIG. 20, panel A). GTL-16 cells were also incubated, after fixation, with the antiMet-R antibody to perform an immunofluoresce analysis.
Background: Flow cytometry measures light scatter and fluorescence of single cells or particles in a stream.

T1 sequence (P08581 25-1390): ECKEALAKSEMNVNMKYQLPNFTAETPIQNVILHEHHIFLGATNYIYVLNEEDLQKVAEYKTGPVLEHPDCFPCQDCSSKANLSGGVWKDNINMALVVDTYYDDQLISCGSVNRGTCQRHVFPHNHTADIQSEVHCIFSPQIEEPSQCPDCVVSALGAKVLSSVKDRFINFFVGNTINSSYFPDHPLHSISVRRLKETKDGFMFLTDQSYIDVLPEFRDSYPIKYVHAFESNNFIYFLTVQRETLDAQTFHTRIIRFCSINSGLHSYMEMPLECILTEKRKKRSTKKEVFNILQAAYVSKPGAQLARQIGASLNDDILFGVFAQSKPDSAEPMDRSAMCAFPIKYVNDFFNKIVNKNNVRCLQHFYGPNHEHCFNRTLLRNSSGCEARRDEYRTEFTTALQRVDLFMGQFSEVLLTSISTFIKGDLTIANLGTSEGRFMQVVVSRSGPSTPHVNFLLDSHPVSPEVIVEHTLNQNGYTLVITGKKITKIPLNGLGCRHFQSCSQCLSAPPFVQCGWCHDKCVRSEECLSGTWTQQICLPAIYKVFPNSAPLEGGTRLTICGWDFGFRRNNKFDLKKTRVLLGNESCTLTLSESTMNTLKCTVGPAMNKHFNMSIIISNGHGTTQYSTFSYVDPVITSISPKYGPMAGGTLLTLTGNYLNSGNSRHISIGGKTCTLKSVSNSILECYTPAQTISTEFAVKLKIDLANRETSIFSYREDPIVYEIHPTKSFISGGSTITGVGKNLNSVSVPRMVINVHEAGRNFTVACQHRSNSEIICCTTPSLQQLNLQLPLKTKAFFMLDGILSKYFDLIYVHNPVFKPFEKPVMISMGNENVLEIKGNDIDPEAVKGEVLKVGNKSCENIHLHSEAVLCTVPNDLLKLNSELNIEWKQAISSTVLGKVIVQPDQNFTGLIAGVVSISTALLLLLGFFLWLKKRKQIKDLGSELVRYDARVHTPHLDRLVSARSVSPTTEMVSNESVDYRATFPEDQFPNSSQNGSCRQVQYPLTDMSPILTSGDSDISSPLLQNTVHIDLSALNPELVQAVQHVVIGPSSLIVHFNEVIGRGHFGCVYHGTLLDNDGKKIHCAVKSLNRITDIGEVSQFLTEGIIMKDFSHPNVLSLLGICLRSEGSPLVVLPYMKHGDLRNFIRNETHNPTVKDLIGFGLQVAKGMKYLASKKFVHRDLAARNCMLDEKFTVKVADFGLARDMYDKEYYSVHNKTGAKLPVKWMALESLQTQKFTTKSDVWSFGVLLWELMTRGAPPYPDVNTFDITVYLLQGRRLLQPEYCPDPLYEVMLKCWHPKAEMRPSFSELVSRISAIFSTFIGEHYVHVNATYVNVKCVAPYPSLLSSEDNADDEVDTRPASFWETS
T2 sequence (P08581 25-932 limits assumed): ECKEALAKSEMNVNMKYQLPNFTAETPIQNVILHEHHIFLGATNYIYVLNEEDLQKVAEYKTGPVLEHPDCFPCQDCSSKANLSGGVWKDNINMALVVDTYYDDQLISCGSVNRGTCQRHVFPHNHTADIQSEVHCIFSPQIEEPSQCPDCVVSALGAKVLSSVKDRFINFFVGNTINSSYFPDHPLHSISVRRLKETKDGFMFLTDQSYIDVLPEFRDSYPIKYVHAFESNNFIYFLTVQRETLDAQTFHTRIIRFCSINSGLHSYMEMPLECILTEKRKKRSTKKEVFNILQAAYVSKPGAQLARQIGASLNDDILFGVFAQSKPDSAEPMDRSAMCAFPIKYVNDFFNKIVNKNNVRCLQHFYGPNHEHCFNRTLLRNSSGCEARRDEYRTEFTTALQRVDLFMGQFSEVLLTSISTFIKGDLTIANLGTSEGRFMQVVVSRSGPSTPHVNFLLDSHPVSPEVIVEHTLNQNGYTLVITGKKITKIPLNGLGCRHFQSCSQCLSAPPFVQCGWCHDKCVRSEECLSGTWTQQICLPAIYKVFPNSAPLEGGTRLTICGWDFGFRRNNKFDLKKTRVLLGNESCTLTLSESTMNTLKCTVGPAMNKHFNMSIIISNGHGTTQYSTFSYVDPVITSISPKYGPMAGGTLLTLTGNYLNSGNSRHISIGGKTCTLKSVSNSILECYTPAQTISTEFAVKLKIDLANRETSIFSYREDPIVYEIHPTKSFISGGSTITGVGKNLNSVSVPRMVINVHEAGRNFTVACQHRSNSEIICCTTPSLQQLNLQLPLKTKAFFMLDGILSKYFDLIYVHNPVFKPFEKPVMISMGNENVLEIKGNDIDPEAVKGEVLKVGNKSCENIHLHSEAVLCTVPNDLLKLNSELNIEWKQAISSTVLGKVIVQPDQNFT
T3 sequence (P08581 25-562 limits assumed): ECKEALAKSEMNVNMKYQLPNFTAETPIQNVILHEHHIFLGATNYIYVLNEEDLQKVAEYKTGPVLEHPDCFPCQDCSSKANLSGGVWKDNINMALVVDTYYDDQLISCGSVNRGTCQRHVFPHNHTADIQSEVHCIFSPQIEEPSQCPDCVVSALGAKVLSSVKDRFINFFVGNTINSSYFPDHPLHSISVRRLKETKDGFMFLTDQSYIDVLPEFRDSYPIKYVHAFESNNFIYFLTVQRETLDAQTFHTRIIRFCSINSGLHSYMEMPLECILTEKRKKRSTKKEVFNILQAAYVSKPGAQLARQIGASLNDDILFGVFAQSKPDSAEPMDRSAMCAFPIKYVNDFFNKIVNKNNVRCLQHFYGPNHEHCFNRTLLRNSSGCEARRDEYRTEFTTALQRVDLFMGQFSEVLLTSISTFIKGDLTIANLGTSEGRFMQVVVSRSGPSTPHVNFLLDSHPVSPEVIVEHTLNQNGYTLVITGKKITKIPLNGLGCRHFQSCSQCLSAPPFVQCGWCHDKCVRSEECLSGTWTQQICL

B1: recombinant AntiMET-R produced by carcinoma cell lines transduced with the bi-directional lentiviral vector carrying AntiMET-R cDNAs (antibody, mouse IgG2a, kappa, V domains shown)
VH: QVQLQQPGTELVKPGASVKLSCKASGYTFTSYWIHWVKQRPGQGLEWIGEINPSSGRTNYNEKFKNKVTVTVDKSSTTAYMQLSNLTSEDSAVYYCASRGYWGQGTTLTVSS
VL: DIVLTQSPASLAVSLGQRATISCKASQSVDYDGGSYMSWFQQRPGQPPKLLISAASNLESGIPARFSGSGSGTDFTLNIHPVEEEDVATYYCQQSYEDPLTFGAGTKLELKR
On to B1, for which the binding result in experiment [1] was “binds”.

B2: AntiMET-R, anti-Met monoclonal antibody produced by the hybridoma cell line ICLC PD 05006 (antibody, mouse IgG2a, kappa, V domains shown)
VH: B1 VH
VL: B1 VL
notes: Mouse monoclonal antibody from a hybridoma; They may include leader peptides; also called purified AntiMET-R
For the molecule B2, the binding result in experiment [2] is given as “binds”; in experiment [3] it was “no binding”; in experiment [4] it was “binds”.
